We go through 29 molecules from US11155602B2, “Polypeptides targeting HIV fusion” (priority 2015, dated 2021).

Some results are limits rather than exact numbers.

The term EC50 denotes the concentration giving half of the maximal effect.

B1: 95 (protein)
chain: MASTSGVSDVPRDLEVVAATPTSLLISWDAPAVTVHSYHIQYWPLGWYQRYQVFSVPGSKSTATISGLKPEVEYQIRVYAETGGGGSQQSFGWIQIGYRTEGSGSHHHHHH
modifications: Adnectin
B2: 108 (protein)
chain: MASTSGVSDVPRDLEVVAATPTSLLISWDAPAVTVLEYQIDYHPAAVWHALQRFTVPGSKSTATISGLKPGVHYKISVTATTHADNESIMWHPISIYYRTEGSGSHHHHHH
modifications: Adnectin
B3: 105 (protein)
chain: MASTSGEFYHTKYPYDLEVVAATPTSLEISWRSPTRDWQWFRITYGETGGNSPVQEFTVAGPYRNAIISGLKPGVDYTITVYADVYMPSEGGLVVDTYHPISINYRTEGSGSHHHHHH
modifications: Adnectin
B4: 100 (protein)
chain: MASTSGSSSYLMPSDLEVVAATPTSLYIHWYPIASTIINFRITYGETGGNSPVQEFTVPGSQVHATISGLKPGVDYTITVYAVHYEHKYSELWMGHPISINYRTEGSGSHHHHHH
modifications: Adnectin
B5: 109 (protein)
chain: MGVSDVPRDLEVVAATPTSLLISWDYPTVTPRYYRITYGETGGNSPVQEFTVPEYIGTATISGLKPGVDYTITVYAVTNDTTIYSISRPISINYRTEIDKPSQHHHHHH
modifications: Adnectin
B6: 106 (protein)
chain: MASTSGQAYPEYYFVDLEVVAATPTSLLISWSKPYYNAYSYRITYGETGGNSPVQEFTVLGHDTRAVISGLKPGVDYTITVYAMFIEYIDQEIWHAHPISINYRTEGSGSHHHHHH
modifications: Adnectin
B7: 107 (protein)
chain: MGVSDVPRDLEVVAATPTSLLISWDEHTDIYRYYRITYGETGGNSPVQEFTVPAMEHTATISGLKPGVDYTITVYAVTHVYPIMIHQYPISINYRTEIDKPSQHHHHHH
modifications: Adnectin
B8: 104 (protein)
chain: MASTSGTHWFYSIPHDLEVVAATPTSLTIAWEPPHHTAMGYRITYGETGGNSPVQEFTVPGGYTTAYISGLKPGVDYTITVYAAYYEREYSEHWISHPISINYRTEGSGSHHHHHH
modifications: Adnectin
B9: 96 (protein)
chain: MGVSDVPRDLEVVAATPTSLLISWDAPAVTVQSYHIQYWPLGSYQRYQVFSVPGSKSTATISGLKPGVEYQIRVYAETGGADSDQSMGWIQIGYRTEGDKPSQHHHHHH
modifications: Adnectin
B10: 97 (protein)
chain: MGVSDVPRDLEVVAATPTSLLISWDAPAVTVHSYHIQYWPLGWYQRYQVFSVPGSKSTATISGLKPGVEYQIRVYAETRSGLADESFGWIQIGYRTEGDKPSQHHHHHH
modifications: Adnectin
B11: 98 (protein)
chain: MGVSDVPRDLEVVAATPTSLLISWDAPAVTVHSYHIQYWPLGSYQRYQVFSVPGSKSTATISGLKPGVEYQIRVYAETGGADSDQSMGWIQIGYRTEGDKPSQHHHHHH
modifications: Adnectin
B12: 103 (protein)
chain: MASTSGYTSYPIPYDLEVVAATPTSLYIHWYWIAATIISFRITYGETGGNSPVQEFTVPAGQDHATISGLKPGVDYTITVYAVHYEEEYSEFWTGHPISINYRTEGSGSHHHHHH
modifications: Adnectin
B13: 101 (protein)
chain: MASTSGSASYLIPSDLEVVAATPTSLSIYWYPVASTIINFRITYVETGGNSPVQEFTVPGSKSTATISGLKPGVDYTITVYAVHYEQKYSEYWIGHPISINYRTEGSGSHHHHHH
modifications: Adnectin
B14: 99 (protein)
chain: MGHHHHHHGGVSDVPRDLEVVAATPTSLLISWDAPAVTVHSYHIQYWPLGSYQRYQVFSVPGSKSTATISGLKPGVEYQIRVYAETGGADSDQSFGWIQIGYRTPES
modifications: Adnectin
B15: 114 (protein)
chain: MGHHHHHHGGVSDVPRDLEVVAATPTSLLISWDAPAVTVHAYHIQYWPLGFYQGYQVFSVPGSKSTATISGLKPGVEYQIRVYAETGLGDAHQSLGWIQIGYRTPES
modifications: Adnectin
B16: 110 (protein)
chain: MGHHHHHHGGVSDVPRDLEVVAATPTSLLISWDAPAVTVHSYHIQYWPLGSYQRYQVFSVPGSKSTATISGLKPGVEYQIRVYAETGRGESDQSLGWIQIGYRTEES
modifications: Adnectin
B17: 112 (protein)
chain: MGHHHHHHGGVSDVPRDLEVVAATPTSLLISWDAPAVTVHSYHIQYWPLGSYQRYQVFSVPGSKSTATISGLKPGVEYQIRVYAETGRGESDQSLGWIQIGYRTPES
modifications: Adnectin
B18: 113 (protein)
chain: MGHHHHHHGGVSDVPRDLEVVAATPTSLLISWDAPAVTVHSYHIQYWPLGSYQRYQVFSVPGSKSTATISGLKPGVEYQIRVYAETGRGESDQSFGWIQIGYRTPES
modifications: Adnectin
B19: 111 (protein)
chain: MGHHHHHHGGVSDVPRDLEVVAATPTSLLISWDAPAVTVHSYHIQYWPLGSYQRYQVFSVPGSKSTATISGLKPGVEYQIRVYAETGRGESDQSFGWIQIGYRTEES
modifications: Adnectin
B20: 102 (protein)
chain: MASTSGSSPYLMPYDLEVVAATPTSLFIRWYGSASSIVKFRITYGETGGNSPVQEFTVGGTQLHATISGLKPGVDYTITVYAVHFEHKYSELWIGHPISINYRTEGSGSHHHHHH
modifications: Adnectin
B21: 139 (protein)
chain: MGVSDVPRDLEVVAATPTSLLISWEDPEAAVRYYRITYGETGGNSPVQEFTVPINDLHSYLSGLKPGVDYTITVYAVTEATVMYVLDEPISINYRTEIDKPSQHHHHHH
modifications: Adnectin
B22: 364 (protein)
chain: MGHHHHHHGGSVSDVPRDLEVVAATPTSLLISWEYKVHPYRYYRITYGETGGNSPVQEFTVPSVLSTATISGLKPGVDYTITVYAVTYGDPSAPISINYRTEID
modifications: Adnectin
B23: 370 (protein)
chain: MGHHHHHHGGSVSDVPRDLEVVAATPTSLLISWEYKVHPYRYYRITYGETGGNSPVQEFTVPSVLSTATISGLKPGVDYTITVYAVTYGDDSKPISINYRTEID
modifications: Adnectin
B24: 371 (protein)
chain: MGHHHHHHGGSVSDVPRDLEVVAATPTSLLISWEYKVHPYRYYRITYGETGGNSPVQEFTVPSVLSTATISGLKPGVDYTITVYAVTYGIDSTPISINYRTEID
modifications: Adnectin
B25: 368 (protein)
chain: MGHHHHHHGGSVSDVPRDLEVVAATPTSLLISWEYKVHPYRYYRITYGETGGNSPVQEFTVPSVLSTATISGLKPGVDYTITVYAVTYGTDSAPISINYRTEID
modifications: Adnectin
B26: 369 (protein)
chain: MGHHHHHHGGSVSDVPRDLEVVAATPTSLLISWEYKVHPYRYYRITYGETGGNSPVQEFTVPSVLSTATISGLKPGVDYTITVYAVTYGDPSAPISINYRTEID
modifications: Adnectin
B27: 366 (protein)
chain: MGHHHHHHGGSVSDVPRDLEVVAATPTSLLISWEYKVYHNRYYRITYGETGGNSPVQEFTVPSVLSTATISGLKPGVDYTITVYAVTYGDDSAPISINYRTEID
modifications: Adnectin
B28: 365 (protein)
chain: MGHHHHHHGGSVSDVPRDLEVVAATPTSLLISWEYKVSGYRYYRITYGETGGNSPVQEFTVPSVLSTATISGLKPGVDYTITVYAVTYGDDSAPISINYRTEID
modifications: Adnectin
B29: 367 (protein)
chain: MGHHHHHHGGSVSDVPRDLEVVAATPTSLLISWEYKVHPYRYYRITYGETGGNSPVQEFTVPSVLSSAQLSGLKPGVDYTITVYAVTYGDDSAPISINYRTEID
modifications: Adnectin

For one assay, the system named is NL-Rluc virus. Briefly: Combinectin potency assay: antiviral EC50, NL-Rluc virus in MT-2 cells, luciferase readout. To be noted: Anti-CD4 Adnectin, Table 2. The class given is cell-based, HIV-1. Here is the method: MT-2 cells, HEK 293T cells and the proviral DNA clone of […] were obtained from the NIH AIDS Research and Reference Reagent Program. MT-2 cells were propagated in RPMI 1640 medium supplemented with 10% heat-inactivated fetal bovine serum (FBS), 10 mM HEPES buffer pH 7.55, and 2 mM L-glutamine. HEK 293T cells were propagated in DMEM media supplemented with 10% heat-inactivated FBS, 10 mM HEPES buffer pH 7.55 and 2 mM L-glutamine. Recombinant NL-Rluc virus, in which a section of the nef gene from the proviral clone of NL4-3 was replaced with the Renilla luciferase gene, was constructed at Bristol-Myers Squibb. The replication-competent virus was harvested 3 days after transfection of HEK 293T cells with the modified pNL-Rluc proviral clone. Transfections were performed using Lipofectamine Plus (Invitrogen, Carlsbad, Calif.), according to manufacturer's instruction. Virus was titered in MT-2 cells using luciferase enzyme activity as a biomarker. The NL-Rluc virus used to infect MT-2 cells a multiplicity of 0.01 for 1 hour before adding to the peptides in 96-well plates. Peptides were serially diluted three-fold and 11 concentrations were plated in triplicate. After 4-5 days of incubation, cells were processed and quantitated for virus growth by the amount of expressed luciferase. Luciferase was quantitated using the Dual Luciferase kit from Promega (Madison, Wis.), with modifications to the manufacturer's protocol. The diluted Passive Lysis solution was pre-mixed with the re-suspended Luciferase Assay Reagent and then re-suspended in STOP & GLO® Substrate (2:1:1 ratio). A total of […] of the mixture was added to each aspirated well on assay plates and luciferase activity was measured immediately on a Wallac TriLux (Perkin-Elmer, Waltham, Mass.). The 50% effective concentration (EC50) was calculated by comparing the amount of luciferase produced in the presence of inhibitory peptide compared to wells where no peptide was added.
Turning to B1, the EC50 was determined as 48 nM.
Still for that read-out and setting: the value for B2 was 170 nM; that for B3 was 300 nM; that for B4 was 6 nM.
The same measure, in the same setting: as for B5, the figure is 320 nM.
Same read-out and setting: the value for B6 was 2400 nM; that for B7 was 500 nM; that for B8 was 500 nM.
Consider B9, for which the EC50 came to 7.8 nM.
On to B10, for which the EC50 stood at 11 nM.
Same read-out and setting: as for B11, the figure is 4.9 nM; as for B12, 255 nM; as for B13, above 400 nM.
On the same count and under the same terms, the value for B14 was 8.5 nM.
On the same count and under the same terms, as for B15, the figure is 12.6 nM.
Turning to B16, the EC50 was determined as 28.6 nM.
On the same count and under the same terms, as for B17, the figure is 18.4 nM; as for B18, 15.4 nM; as for B19, 20 nM.
On the same count and under the same terms, as for B20, the figure is above 5500 nM.

Staying with this assay, now noted: Anti-N17 Adnectin, Table 3.
For the molecule B21, the EC50 stood at 130 nM.
Still for that read-out and setting: as for B22, the figure is 89 nM.
Same read-out and setting: as for B23, the figure is 335 nM; as for B24, 114 nM; as for B25, 62 nM.
Same read-out and setting: the value for B26 was 155 nM; that for B27 was above 1000 nM.
With B28, the EC50 is above 1000 nM.
Still for that read-out and setting: the value for B29 was 300 nM.
